Laboratory results: the nanobody polyreactivity screen of Harvey et al. (2022)

Test: yeast display, Sf9 membrane polyspecificity reagent, FACS + sequencing; frameworks hold sequencing errors
Outline: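 A nanobody's polyreactivity label depends on the gate it was sorted from. Yeast display cells were stained with 10% biotinylated, detergent-solubilized Sf9 membrane reagent for 1 hour at 4 °C, enriched on streptavidin microbeads and sorted by FACS. The low and high (top ~1%) gates were set on anti-HA fluorescence for expression and streptavidin fluorescence for reagent binding.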

Row | Sequence | polyreactivity (PSR sort gate)
1 | QVQLVESGGGLVQAGGSLRLSCAASGLTFEYYTMGWYIQAPGKERELVAAITSSGGSTYYADSVKGRFTISRDNAKNTVYLQMNSLKPVDTAVYYCAAYQIYQYDGTYDYWGQGTQVTVSS | low polyreactivity
2 | QVQLVESGGGLVQAGGSLRLSCAASGLTFEYYTMGWYRQAPGKERELVAAITSSGGSTYYADSVKGRFTISRDNAKNTVYLQMNSLKPEDTAVYYCAADYYTWYGILYDYWGQGTQVTVSS | low polyreactivity
3 | QVQLVESGGGLVQAGGSLRLSCAASGLTFFGNAMGWYRQAPGKERELVATISSGGGTSYADSVKGRFTISRDNAKNTVYLQMNSLKPEDTAVYFCAAEIVEEFDYWGQGTQVTVSS | low polyreactivity
4 | QVQLVESGGGLVQAGGSLRLSCAASGLTFFKYTMGWYIQAPGKERELVAAINGGGSTNYADSVKGRFTISRDNAKNTVYLQMNSLKPEDTAVYYCAAGLPYGYDYWGQGTQVTVSS | low polyreactivity
5 | QVQLVESGGGLVQAGGSLRLSCAASGLTFGDNAMGWYRQAPGKERELVAAITTSGPSTYYADSVKGRFTISRDNAKNTVYLQMNSLKPEDTAVYYCAADGLFYWVQYGYWGQGTQVTVSS | low polyreactivity
6 | QVQLVESGGGLVQAGGSLRLSCAASGLTFGDYAMGWYRQAPGKEWELVAVITSSGSTYYADSVKGRFTISRDNAKNTVYLQMNSLKPEDTAVYYCATSAPAYRWRERYYYWGQGTQVTVSS | high polyreactivity
7 | QVQLVESGGGLVQAGGSLRLSCAASGLTFGDYTMGWYRQAPGKERELVAAITWSGASTYYADSVKGRFTISRDNAKNTVYLQMNSLKPEDTAVYYCADERTPSYRAYDYWGQGTKVTVSS | low polyreactivity
8 | QVQLVESGGGLVQAGGSLRLSCAASGLTFGGNAMGWYRQAPGKERELVAAISSGGSTNYADSVKGRFTISRDNAKNTVYLQMNSLKPEDTAVYYCAARDRPGNYFTVYGYWGQGTQVTVSS | low polyreactivity
9 | QVQLVESGGGLVQAGGSLRLSCAASGLTFGGNAMGWYRQAPGKERELVAAISWSDDTTDYADSVKGRFTISRDNAKNTVYLQMNSLKPEDTAVYYCADRLPFEHVDYWGQGTQVTVSS | low polyreactivity
10 | QVQLVESGGGLVQAGGSLRLSCAASGLTFGGNAMGWYRQAPGKERELVAAISWSDDTTDYADSVKGRFTISRDNAKNTVYVQMNSLKPEDTAVYYCAARLPFEHVDYWGQGTQVTVTS | low polyreactivity
11 | QVQLVESGGGLVQAGGSLRLSCAASGLTFGRNAMGWYRQAPGKERELVAAISRSGGRTSYADSVKGRFTISRDYAKNTVYLQMNSLKPEDTSVYFCAALSDVYTHDYWGQGTQVTVSS | high polyreactivity
12 | QVQLVESGGGLVQAGGSLRLSCAASGLTFGTYAMGWYRQAPGKERELVAAIRSGGSTNYADSVKGRFTISRDTAKNTVYLQMNILKPEDNAVYYCAKRYYWDRYYYWGQGTPVTVSS | high polyreactivity
13 | QVQLVESGGGLVQAGGSLRLSCAASGLTFGWYAMGWYRQAPGKERELVASITRRSGSTYYADSVKGRFTISRDNAKNTVYLQMNSLKPEDTAVYYCNAVPGYVYYYQYWGQGTQVTVSS | high polyreactivity
14 | QVQLVESGGGLVQAGGSLRLSCAASGLTFGYYAMGWYRQAPGKERELVAAISVSGSTYYADSVKGRFTISRDNAKNTVYLQMNSLKPEDTAVYYCNRAIGYRKELDYWGQGTQVTVSS | high polyreactivity
15 | QVQLVESGGGLVQAGGSLRLSCAASGLTFGYYAMGWYRQAPGKERELVAVISGGGGTHYADSVKGRFTISRDNAKNTVYLQMNSLKPEDTAVYYCAARYRAQQIARYYYWGQGTQVTVSS | high polyreactivity
16 | QVQLVESGGGLVQAGGSLRLSCAASGLTFGYYTMGWYRQAPGKERELVAAITYSGGSTYYADSVKGRFTISRDNAKNSVYLQMYSLKPEDTAVYYCAADGPVYTTYEYWGQGTQVTVSS | low polyreactivity

Row | Sequence | polyreactivity (PSR sort gate)
17 | QVQLVESGGGLVQAGGSLRLSCAASGLTFGYYTMGWYRQAPGKERELVAAITYSGGSTYYADSVKGRFTISRDNAKNTVYLQMNSLKPEDTAVYYCAAEGPVYTTYEYWGQGTQVTVSS | low polyreactivity
18 | QVQLVESGGGLVQAGGSLRLSCAASGLTFHRYAMGWYRPAPGKERELVAGISWSGASTYYADSVKGRFTISRDNAKNTVYLQMNSLKPEDTAVYYCAARRYYKYDWGQGTQVTVSS | high polyreactivity
19 | QVQLVESGGGLVQAGGSLRLSCAASGLTFIAYAMGWYRQAPGKERELVAAITWIGDSTYYADSVKGRFTISRDNAKNTVYLQMNSLKPEDTAVYYCATDWYGQYNGIYDYWGQGTQVTVSS | low polyreactivity
20 | QVQLVESGGGLVQAGGSLRLSCAASGLTFIFNTMGWYRQAAGKERVLVAAISTSGGSTYYADSVKGRFTISRDNANNTVYLQMNSVKQEDTAFYYCAKEFKYWGYPYEYWGQGTLVTVSS | low polyreactivity
21 | QVQLVESGGGLVQAGGSLRLSCAASGLTFIFYAMGWYRPAPGKERELVAAISVSGGSTYYADSVKGRFTISRDNAKNTVYLQMNSLKPEDTAVYYCAADREHFATYGPHMDYWGQGTQVTVSS | low polyreactivity
22 | QVQLVESGGGLVQAGGSLRLSCAASGLTFIHYSMGWYRQAPGKEREFVAAISTNSGSTYYADSVKGRFTISRDNAKNTVYLQMNSLKPEDTAVYYCAARGLRWRIDGEYWGQGTQVTVSS | high polyreactivity
23 | QVQLVESGGGLVQAGGSLRLSCAASGLTFIRYAMGWYRQAPGKQRELVAAISTSGGRTYYADSVKGRFTISRDNAKNNVYLQMNILTPEDTAVYYCNAYWRQGYYPEYYYWGQGTQVTVSS | high polyreactivity
24 | QVQLVESGGGLVQAGGSLRLSCAASGLTFIYYAMGWYRQAPGKERELVAAISTSGASTYYADSVKGRFTISRDNAKNTVYLQMNSLKPEDTAVYYCNAEYFGEYRDYGYWGQGTQVTVSS | low polyreactivity
25 | QVQLVESGGGLVQAGGSLRLSCAASGLTFIYYAMGWYRQAPGKERELVARINNGDNTYYADSVKGRFTISRDNAKNTVYLQMNRLNPEDTAVYYCAAARYSRLSRTRPGKYGYWGQGTQVTVSS | low polyreactivity
26 | QVQLVESGGGLVQAGGSLRLSCAASGLTFIYYAMGWYRQARGKERELVAAISRSGGSTYYADSVKGRFTISRDNAKNTVYLQMNSLKPEDTAVYYCAADGTKYSGRVTGDYWGQGTQVTVSS | high polyreactivity
27 | QVQLVESGGGLVQAGGSLRLSCAASGLTFKDNVMGWYRQAPGKERELVAAISSSGGSTYYADSVKGRFTLSRDNAKNTVYLQMNSLKPEDTAVYYCAAPTFSRYYYWGQGTQVTVSS | high polyreactivity
28 | QVQLVESGGGLVQAGGSLRLSCAASGLTFKFNAMGWYRQAPGKERELVAAITYSGGSTYYADSVKGRFTISRDNAKNTVYLQMNSLKPDDTAVYYCAAEGWWGYYRYNYWGQGTQVTVSS | high polyreactivity
29 | QVQLVESGGGLVQAGGSLRLSCAASGLTFKQYALGWYRQAPGKERELVAAITVSGGDTYYADSVKGRFTISRDNAKNSVYLQMNSLKPVDTAVYYCAADHFFWGYDYWGQGTQVTVSS | high polyreactivity
30 | QVQLVESGGGLVQAGGSLRLSCAASGLTFKVYAMGWYRQAPGKERELVAAISWSGGSTYYADSVKGRFTISRDNAKNTVYLQMNSLKPEDTAVYYCAARGYAWYRGNYDYWGQGTQVTVSS | high polyreactivity
31 | QVQLVESGGGLVQAGGSLRLSCAASGLTFKVYAMGWYRQAPGKERELVAAISWSGGSTYYADSVKGRFTISRDNAKNTVYLQMNSLKPEDTAVYYCAVEPSYYVVFFPYEYWGQGTQVTVSS | low polyreactivity
32 | QVQLVESGGGLVQAGGSLRLSCAASGLTFKYYAMGWSRQAPGKESELVAAITSTGGRTYYADSVKGRFTISRDNAKNTVYLQMNSLKPEDTAVYYCAAYYVGSSKYDSWGQGTQVTVSS | low polyreactivity
